Results taken from PMC10590398, “Hfq C-terminal region forms a β-rich amyloid-like motif without perturbing the N-terminal Sm-like structure” (Communications Biology, 2023).

Legend:
[1] = target: the molecule itself; assay: ATR-FTIR; assembled Hfq CTR at 20 mg/mL in D2O, the amyloid state at the start of the lipid experiment
[2] = target: the molecule itself; assay: X-ray fibre diffraction; Hfq11 filaments assembled in water, seen as bundles of approx. 20 nm fibers by TEM; powder diffraction at 270 K, Cu Kα, washed by centrifugation; reflections at 4.6 Å and 7.8–8 Å (cross-β)

Protein | binding result [1] | binding result [2]
SRPVSHHSNNAGGGTSSNYHHGSSAQNTSAQQDSEETE (Hfq (host factor 1), E. coli, C-terminal region; The lipid experiment names its sample only 'assembled Hfq CTR'; also called Hfq 38-residues; Hfq CTR; source: synthetic peptide (Proteogenix), assembled at 4 °C at 20 mg/mL for >1 month (D2O for FTIR)) [Hfq 38-residue C-terminal region peptide] | binds | –
SAQNTSAQQDS (Hfq (host factor 1), E. coli, C-terminal region; Unlabelled synthetic peptide, studied as assembled filaments; also called Hfq 11-residues; 11-residue C-terminal Hfq peptide; source: synthetic peptide (Proteogenix), assembled in water at 4 °C at 20 mg/mL for >1 month) [Hfq11, minimal 11-residue C-terminal assembling motif of E. coli Hfq (Hfq_(87-97))] | – | binds
